Assay results reported in paper PMC7599888.

Target: Sulfolobus solfataricus poly(ADP-ribose) polymerase-like thermoprotein (PARPSso) (S. solfataricus)
Test: SDS-PAGE band shift with silver staining; PARPSso (3 ug, 65 pmol) mixed with Sso7 at 1:0.5, 1:1 and 1:3 mol/mol in 10 mM Na-phosphate/10 mM EDTA pH 7.5, 80 °C for 20 min (once at 45 °C); 5-12% gradient SDS-PAGE

Sulfolobus solfataricus poly(ADP-ribose) polymerase-like thermoprotein (PARPSso) (S. solfataricus), sequence (B3EWG9 whole entry): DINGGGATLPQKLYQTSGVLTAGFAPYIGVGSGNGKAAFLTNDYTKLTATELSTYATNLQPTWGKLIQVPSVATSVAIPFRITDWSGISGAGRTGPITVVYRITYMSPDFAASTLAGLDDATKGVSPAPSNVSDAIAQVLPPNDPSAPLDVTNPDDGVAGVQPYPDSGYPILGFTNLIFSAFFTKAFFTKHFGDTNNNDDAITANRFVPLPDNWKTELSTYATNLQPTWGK

stoichiometry N: 3
Substance: Sso7 protein (from UniProt P39476 1-64) (natural protein)
